Data as given in PMC3989047, “Purification and characterization of tyrosinase from walnut leaves (Juglans regia)” (Phytochemistry, 2014).

Key:
purified protein [1] = substrate: N[C@@H](Cc1ccc(O)c(O)c1)C(=O)O; assay: purified protein; type: biochemical, Juglans regia; settings: 50 mM sodium phosphate pH 6.5, five substrate concentrations 0.29-1.96 mM
purified protein [2] = substrate: N[C@@H](Cc1ccc(O)cc1)C(=O)O; assay: purified protein; type: biochemical, Juglans regia; settings: 50 mM sodium phosphate pH 6.5, five substrate concentrations 0.29-1.96 mM

B1: jrPPO1(Asp101 → Arg445), Juglans regia tyrosinase (form 2) (Juglans regia) (protein)
chain: DPVSAPELTLCSEADLPAGALPVNCCPPTSKKIKDFVLPSQNTPLRVRPAAHLVDNDYIAKYNKGIELMKSLPADDPRSFTQQANVHCAYCDGAYTQVGFPDLSLQVHECWLFFPFHRYYVYFFEKILGKLIGDPTFALPFWNWDSPPGMQLPSLYAVSNSAIYDPLRNANHQPPTIIDLDYGETSESTTTTDQVPSNLKIMYRQMVSGAKNPTLFFGSPYRAGDEPDPGAGTIESTPHNNIHLWTGDDTQPNIENMGNFYSAGRDPIFFAHHSNVDRMWTIWKTLGGKRKDITDPDWLNSSFFFYDENADPVRVKVKDCVDNTKLRYVYQDVEIPWLKTKPTPR
notes: native, purified from walnut leaves; 39,047 Da
**Q.** Which results are given for B1?
**A.** Km (purified protein [1]): 8.8 mM; Vmax (purified protein [1]): 60 µM/min; Vmax/Km (purified protein [1]): 0.01 min⁻¹; kcat (purified protein [1]): 199 s⁻¹; kcat/Km (purified protein [1]): 22800 M⁻¹ s⁻¹; Km (purified protein [2]): 1.9 mM; Vmax (purified protein [2]): 80 µM/min; Vmax/Km (purified protein [2]): 0.04 min⁻¹; kcat (purified protein [2]): 20.8 s⁻¹; kcat/Km (purified protein [2]): 10900 M⁻¹ s⁻¹
